The source of these data is the nanobody polyreactivity screen of Harvey et al. (2022).

A short description of the data set: yeast display, Sf9 membrane polyspecificity reagent, FACS + sequencing; frameworks hold sequencing errors. The method in brief: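 Genes from sorted yeast were amplified by colony PCR, read by MiSeq 2 × 250 sequencing and filtered on CDR length. These cells carried a synthetic nanobody library in Saccharomyces cerevisiae BJ5465 and were sorted by FACS into low and high (top ~1%) gates on anti-HA and streptavidin fluorescence. Polyreactivity is labelled according to the gate of origin.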
As to “QVQLVESGGGLVQAGGSLRLSCAASGSTFDAYDMGWYRQAPGTERELVADINWSGGITYYADSVKGRFRISRDNAKNTVYLQMNSLKPEDTAVYYCNADASFYSRVNYWGQGTQVTVSS”, the “polyreactivity (PSR sort gate)” value is listed as “high polyreactivity”. Under “QVQLVESGGGLVQAGGSLRLSCAASGSTFDDNAMGWYRQAPGKERELVAGISTNGGSTSYADSVKGRFTISRDNAKNTVYLQMNSLKPEDTAVYYCAKGMYVQFDYWGQGTQVTVSS” stands “low polyreactivity”. For the sequence “QVQLVESGGGLVQAGGSLRLSCAASGSTFDDNAMGWYRQAPGKERELVASITYRGGSTYYADSVKGRFTISRDNAKNTVYLQMNSLKPEDTAVYYCNADYTGAEYDYWGQGTQVTVSS”, the “polyreactivity (PSR sort gate)” value is “low polyreactivity”. As to “QVQLVESGGGLVQAGGSLRLSCAASGSTFDFNAMGWYRQAPGKERELVAAITGSGGSTDYADSVKGRFTISRDNAKNTVYLQMNSMKPEDTAVYYCNAGKTIDYRDGVGYDHWGQGTQVTVSS”, the “polyreactivity (PSR sort gate)” value is on record as “low polyreactivity”. For “QVQLVESGGGLVQAGGSLRLSCAASGSTFDFNAMGWYRQAPGKERELVAAITYSAGSTYSADSVKGRFTISRDNAQNTVDLQMNSLKPEDTAVYYCAAEDVYPGSIDMDDWGQGTQVTVSS” the value was “low polyreactivity”. Under “QVQLVESGGGLVQAGGSLRLSCAASGSTFDGNAKGWYRQAPGKERELVATINSGSSTNYADSVKGRFTISRDNAKNTVYLQMISLKPEDTAVFYCNVDSGSDSLVYSVRYNYWGQGTQVTVSS” stands “low polyreactivity”; under “QVQLVESGGGLVQAGGSLRLSCAASGSTFDGNAMGWYRQAPGKERELVATINSDDSKNYADSVKGRFTISRDNAKNTVYLQMNSLKPEDTAVYYCAARLYVTPILSYVERYTNDYWGQGTQVTVSS”, “low polyreactivity”.

With “QVQLVESGGGLVQAGGSLRLSCAASGSTFDGNTMGWYRQAPGKERELVAAISGSGGSTYYADSVKGRFTISRDNAKKTVYLQMNSLKPEDTAVYYCAARRIHTTSSRGYYWGQGTQVTVSS”, the “polyreactivity (PSR sort gate)” value is recorded as “high polyreactivity”. On to “QVQLVESGGGLVQAGGSLRLSCAASGSTFDGYAMGWYRQAPGKERELVAAISRSGGRTYNADSVKGRFTISRDYAKNTVYLQMNSLKPEDTAVYYCAAYKPRPQYTDDDYWGQGTQVTVSS”, for which the “polyreactivity (PSR sort gate)” value was “high polyreactivity”.

On to “QVQLVESGGGLVQAGGSLRLSCAASGSTFDHYTMGWYRQAPGKERELVAAINRIGDSTYYADSVKGRCTISRDNAKNTVYLQMTSLKPEDTAVYYCNTVSLSLRFDYWGQGTQVTVSS”, for which the “polyreactivity (PSR sort gate)” value is listed as “high polyreactivity”. Under “QVQLVESGGGLVQAGGSLRLSCAASGSTFDIYALGWDRQAPGKEREMVAVISGGDGSTYYADSVKGRFTISRDNEKNTVYLQMNSLKPEETAVYYFAADRGTVSYLYSPRAVDYWGQGTQVTVSS” stands “low polyreactivity”; under “QVQLVESGGGLVQAGGSLRLSCAASGSTFDIYAMGWYRQAPGKERELVAAISVSDVDTYYADSVKGRFTISRDNAKNTVYLQMNSLKPEDTAVYYCNAERFWPWDYDYWGQGTQVTVSS”, “high polyreactivity”; under “QVQLVESGGGLVQAGGSLRLSCAASGSTFDIYAMGWYRQAPGKERELVAAITFSGGSTYADSVKGRFTISRDNAKNTVYLQMNSLKPEDTAVYYCAVDGGEFSSYGYWGQGTQVTVSS”, “low polyreactivity”. Under “QVQLVESGGGLVQAGGSLRLSCAASGSTFDKNAMGWYRQAPGKERELVAAITWRGGRTYYADSVKGRFPISRDNAKNTVYLQMNSLKPEDTAVYYCNKVSWEQMDYWGQGTQVTVSS” stands “low polyreactivity”; under “QVQLVESGGGLVQAGGSLRLSCAASGSTFDKYTMGWYRQAPGKDRELVAAISWSGGSTYASSVKGRFTMSRDNAKNTVYLQMTCLKPEDTAVYSCAARYRNYDLWLGNRRGSYYSWGQGTQVTVSS”, “high polyreactivity”. Under “QVQLVESGGGLVQAGGSLRLSCAASGSTFDLYAMGWYRQAPGKERELVAAISSSGGRTYYADAVKGRFTISRDNAKNTVYLQMNSLKPEDTAVYDCAAVGYKYSRYDYWGQGTQVTVSS” stands “high polyreactivity”.
